In paper PMC9408938:

Experiments:
[1] = target: T1, Human interferon-gamma receptor chain-1 (human (endogenous in WISH)) (UniProt P15260)
T1 sequence: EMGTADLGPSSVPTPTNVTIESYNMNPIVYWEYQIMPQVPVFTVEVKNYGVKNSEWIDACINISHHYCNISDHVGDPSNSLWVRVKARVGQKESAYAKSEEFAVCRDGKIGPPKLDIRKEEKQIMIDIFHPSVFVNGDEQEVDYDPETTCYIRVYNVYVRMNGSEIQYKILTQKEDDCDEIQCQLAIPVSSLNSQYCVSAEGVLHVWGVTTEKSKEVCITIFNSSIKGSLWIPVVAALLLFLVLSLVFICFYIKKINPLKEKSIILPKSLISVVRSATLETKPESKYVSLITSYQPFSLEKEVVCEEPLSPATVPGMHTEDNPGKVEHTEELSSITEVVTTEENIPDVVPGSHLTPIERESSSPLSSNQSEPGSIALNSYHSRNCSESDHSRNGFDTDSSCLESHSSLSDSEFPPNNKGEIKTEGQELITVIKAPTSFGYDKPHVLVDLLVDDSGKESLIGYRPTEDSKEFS

[2] = target: T1, Human interferon-gamma receptor chain-1 (human (endogenous in WISH)); remark: listed apart in the source

Human interferon-gamma, sequence (P01579 24-161): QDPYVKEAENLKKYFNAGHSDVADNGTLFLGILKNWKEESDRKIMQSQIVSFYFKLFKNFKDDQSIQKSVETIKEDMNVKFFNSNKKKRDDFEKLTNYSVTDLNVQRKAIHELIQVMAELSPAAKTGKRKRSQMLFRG

ratio of pSTAT1 to total STAT1 (Western blot, normalised to β-actin) in hIFN γ-stimulated WISH cells cultured under standard conditions (control) (ratio pSTAT1/STAT1) [1]: 3.14
ratio of pSTAT1 to total STAT1 (Western blot, normalised to β-actin) in hIFN γ-stimulated WISH cells cultured with 30 mM NaClO3 (reduced HS sulfation) (ratio pSTAT1/STAT1) [1]: 1.7
antiproliferative activity of hIFN γ (15 ng/mL) by modified kynurenine bioassay, optical density at 490 nm, WISH cells cultured with 30 mM NaClO3 [2]: 0.051 OD 490 nm
antiproliferative activity of hIFN γ (15 ng/mL) by modified kynurenine bioassay, optical density at 490 nm, untreated WISH cells [2]: 0.377 OD 490 nm
lowering of the biological activity (hIFN γ signal, kynurenine bioassay) in WISH cells cultured with NaClO3 against untreated cells [2]: 86%
Substance: Human interferon-gamma (from UniProt P01579 24-161) (ligand)
